In patent publication US20210130436A1:

Molecular target: CD28 (human) (UniProt P10747)
Experiment: cell-based or functional assay

IL-2-luciferase RLU, Jurkat + K562/OKT3/PD-L1 aAPC, 50 nM [RLU]	IL-2 release, primary T cells; K562/OKT3 (No PD-L1); 1 nM	IL-2 release, primary T cells; K562/OKT3 (No PD-L1); 10 nM	IL-2 release, primary T cells; K562/OKT3 (No PD-L1); 100 nM	Fold Increase over WT CD80-IgV-Fc, same assay, 50 nM [fold]	IL-2-luciferase RLU, Jurkat + CHO/OKT3/PD-L1 aAPC, 0.6 nM [RLU]	IL-2-luciferase RLU, Jurkat + CHO/OKT3/PD-L1 aAPC, 1.9 nM [RLU]	IL-2-luciferase RLU, Jurkat + CHO/OKT3/PD-L1 aAPC, 5.6 nM [RLU]	IL-2-luciferase RLU, Jurkat + CHO/OKT3/PD-L1 aAPC, 16.7 nM [RLU]	IL-2-luciferase RLU, Jurkat + CHO/OKT3/PD-L1 aAPC, 50 nM [RLU]	Substance
3040										WT CD80-ECD-Fc (effector) (from UniProt P33681 35-242) (Fc fusion)
	7080	6920	6260							WT IgG1 Fc Control
498				0.9						variant CD80 IgV-Fc (inert) A26E/E35D/M43I/M47L/L85Q/K86E/R94W (Fc fusion)
526				0.9						variant CD80 IgV-Fc (inert) A26E/E35D/M43T/M47L/L85Q/R94Q (Fc fusion)
476										variant CD80 IgV-Fc (inert) A26E/Q33L/E35D/M47L (Fc fusion)
416				0.7						variant CD80 IgV-Fc (inert) A26E/Q33L/E35D/M47L/L85Q (Fc fusion)
500				0.9						variant CD80 IgV-Fc (inert) A26E/Q33R/E35D/M47L/L85Q (Fc fusion)
569										variant CD80 IgV-Fc (inert) A26E/Q33R/E35D/M47L/L85Q/K86E (Fc fusion)
					524	530	617	641	755	variant CD80 IgV-Fc (inert) A71D/L72V/E95K (Fc fusion)
1240				2.2						variant CD80 IgV-Fc (inert) E7D/E35D/M47I/L97Q (Fc fusion)
3240				5.7						variant CD80 IgV-Fc (inert) E24D/Q33L/E35D/M47V/K54R/L85Q (Fc fusion)
1090				1.9						variant CD80 IgV-Fc (inert) E35D/D46E/M47V/L97Q (Fc fusion)
				4						variant CD80 IgV-Fc (inert) E35D/D46V/M47I/A71G/F92V (Fc fusion)
473										variant CD80 IgV-Fc (inert) E35D/M47I/E77A/L85Q/R94W (Fc fusion)
602				1.1						variant CD80 IgV-Fc (inert) E35D/M47I/K54R/L85E (Fc fusion)
2160				3.8						variant CD80 IgV-Fc (inert) E35D/M47L/A71G/L97Q (Fc fusion)
				5						variant CD80 IgV-Fc (inert) E35D/M47L/L85Q (Fc fusion)
576										variant CD80 IgV-Fc (inert) E35D/M47V/A71G/L85M/L97Q (Fc fusion)
438										variant CD80 IgV-Fc (inert) E35D/M47V/T62A/A71G/V83A/Y87H/L97M (Fc fusion)
2650				4.7						variant CD80 IgV-Fc (inert) H18L/V22A/E35D/M47L/N48T/L85Q (Fc fusion)
408				0.7						variant CD80 IgV-Fc (inert) H18Y/A26E/Q33L/E35D/M47L/L85Q (Fc fusion)
					628	621	795	974	1160	variant CD80 IgV-Fc (inert) H18Y/A26T/E35D/A71D/L85Q (Fc fusion)
2980				5.3						variant CD80 IgV-Fc (inert) H18Y/E35D/M47L (Fc fusion)
4340										variant CD80 IgV-Fc (inert) H18Y/E35D/V68M/L97Q (Fc fusion)
486				0.9						variant CD80 IgV-Fc (inert) H18Y/Q33L/E35D/M47I (Fc fusion)
566										variant CD80 IgV-Fc (inert) H18Y/V20A/Q33L/E35D/M47V/Y53F (Fc fusion)

IL-2-luciferase RLU, Jurkat + K562/OKT3/PD-L1 aAPC, 50 nM [RLU]	IL-2 release, primary T cells; K562/OKT3 (No PD-L1); 1 nM	IL-2 release, primary T cells; K562/OKT3 (No PD-L1); 10 nM	IL-2 release, primary T cells; K562/OKT3 (No PD-L1); 100 nM	Fold Increase over WT CD80-IgV-Fc, same assay, 50 nM [fold]	IL-2-luciferase RLU, Jurkat + CHO/OKT3/PD-L1 aAPC, 0.6 nM [RLU]	IL-2-luciferase RLU, Jurkat + CHO/OKT3/PD-L1 aAPC, 1.9 nM [RLU]	IL-2-luciferase RLU, Jurkat + CHO/OKT3/PD-L1 aAPC, 5.6 nM [RLU]	IL-2-luciferase RLU, Jurkat + CHO/OKT3/PD-L1 aAPC, 16.7 nM [RLU]	IL-2-luciferase RLU, Jurkat + CHO/OKT3/PD-L1 aAPC, 50 nM [RLU]	Substance
455										variant CD80 IgV-Fc (inert) H18Y/Y31H/E35D/M47V/A71G/L85Q (Fc fusion)
513				0.9						variant CD80 IgV-Fc (inert) Q27H/E35D/M47L/L85Q/R94Q/E95K (Fc fusion)
551										variant CD80 IgV-Fc (inert) Q27H/Q33L/E35D/M47V/N55D/L85Q/K89N (Fc fusion)
504				0.9						variant CD80 IgV-Fc (inert) Q33K/E35D/D46V/L85Q (Fc fusion)
415				0.7						variant CD80 IgV-Fc (inert) Q33K/E35D/M47V/K89E/K93R (Fc fusion)
554										variant CD80 IgV-Fc (inert) Q33L/E35D/D46E/M47I (Fc fusion)
553										variant CD80 IgV-Fc (inert) Q33L/E35D/M43I/L85Q/R94W (Fc fusion)
473										variant CD80 IgV-Fc (inert) Q33L/E35D/M43V/M47I/A71G (Fc fusion)
423				0.7						variant CD80 IgV-Fc (inert) Q33L/E35D/M47I (Fc fusion)
432										variant CD80 IgV-Fc (inert) Q33L/E35D/M47I/L85Q (Fc fusion)
463										variant CD80 IgV-Fc (inert) Q33L/E35D/M47I/T62N/L85Q (Fc fusion)
394				0.7						variant CD80 IgV-Fc (inert) Q33L/E35D/M47L/A71G/F92S (Fc fusion)
572										variant CD80 IgV-Fc (inert) Q33L/E35D/M47L/V68M/L85Q/E88D (Fc fusion)
393				0.7						variant CD80 IgV-Fc (inert) Q33L/E35D/M47V (Fc fusion)
556										variant CD80 IgV-Fc (inert) Q33L/E35D/M47V/L85Q (Fc fusion)
527				0.9						variant CD80 IgV-Fc (inert) Q33L/E35D/M47V/T79A (Fc fusion)
358				0.6						variant CD80 IgV-Fc (inert) Q33L/E35D/N48K/L85Q/L97Q (Fc fusion)
533				0.9						variant CD80 IgV-Fc (inert) Q33L/E35D/T41S/M43I (Fc fusion)
481										variant CD80 IgV-Fc (inert) Q33L/E35D/T41S/M47V (Fc fusion)
522				0.9						variant CD80 IgV-Fc (inert) Q33R/E35D/D46E/M47I (Fc fusion)
464										variant CD80 IgV-Fc (inert) Q33R/E35D/K37E/M47V/L85Q (Fc fusion)
468										variant CD80 IgV-Fc (inert) S15P/Q33L/E35D/M47L/L85Q (Fc fusion)
390				0.7						variant CD80 IgV-Fc (inert) V22A/E23D/Q33L/E35D/M47V (Fc fusion)
538										variant CD80 IgV-Fc (inert) V22A/E35D/V68E/A71D (Fc fusion)
3310				5.9						variant CD80 IgV-Fc (inert) V22A/R29H/E35D/D46E/M47I (Fc fusion)
496				0.9						variant CD80 IgV-Fc (inert) Y31S/E35D/M47L/T79L/E88G (Fc fusion)

Same assay, conditions: not given

IL-2-luciferase RLU, Jurkat + CHO/OKT3 aAPC (no PD-L1), 5.6 nM [RLU]	IL-2-luciferase RLU, Jurkat + CHO/OKT3 aAPC (no PD-L1), 16.7 nM [RLU]	IL-2-luciferase RLU, Jurkat + CHO/OKT3 aAPC (no PD-L1), 50 nM [RLU]	Substance
466	547	644	variant CD80 IgV-Fc (inert) A71D/L72V/E95K (Fc fusion)
	660	926	variant CD80 IgV-Fc (inert) H18Y/A26T/E35D/A71D/L85Q (Fc fusion)

Molecular target: PD-L1 (human) (UniProt Q9NZQ7)
Experiment: cell-based or functional assay

PD-L1 (human), sequence (Q9NZQ7 19-290): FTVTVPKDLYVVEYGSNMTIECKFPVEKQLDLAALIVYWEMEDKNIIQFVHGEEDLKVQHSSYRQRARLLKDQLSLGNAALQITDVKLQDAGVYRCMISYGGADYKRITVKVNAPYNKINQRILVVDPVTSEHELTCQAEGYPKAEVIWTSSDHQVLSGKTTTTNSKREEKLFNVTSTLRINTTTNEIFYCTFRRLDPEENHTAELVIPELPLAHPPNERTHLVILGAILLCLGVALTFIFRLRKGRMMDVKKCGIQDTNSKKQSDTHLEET

RLU, Jurkat/IL2 + CHO/OKT3/PD-L1 Reporter Assay, CD80 Conc 5.0 nM [RLU]	Substance
1050	CD80 IgV-Fc (inert) H18A/A26N/E35D/M47L/V68M/A71G/D90G (from UniProt P33681 35-141) (Fc fusion)
936	CD80 IgV-Fc (inert) H18C/A26P/E35D/M47L/V68M/A71G (from UniProt P33681 35-141) (Fc fusion)
926	CD80 IgV-Fc (inert) H18F/A26P/E35D/M47I/V68M/A71G/D90G (from UniProt P33681 35-141) (Fc fusion)
972	CD80 IgV-Fc (inert) H18R/A26P/E35D/D46N/M47V/V68M/A71G/D90P (from UniProt P33681 35-141) (Fc fusion)
1050	CD80 IgV-Fc (inert) H18T/A26N/E35D/M47L/V68M/A71G (from UniProt P33681 35-141) (Fc fusion)
771	CD80 IgV-Fc (inert) H18V/A26D/E35D/M47V/V68M/A71G/D90G (from UniProt P33681 35-141) (Fc fusion)
